Experimental data as given in the nanobody polyreactivity screen of Harvey et al. (2022).

Experiment: yeast display, Sf9 membrane polyspecificity reagent, FACS + sequencing; frameworks hold sequencing errors
Procedure, shortened: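 A synthetic nanobody library was expressed on Saccharomyces cerevisiae BJ5465 by galactose induction for 36–48 hours. The library was stained for 1 hour at 4 °C with 10% biotinylated, detergent-solubilized Sf9 membrane reagent and enriched with streptavidin microbeads before FACS. Low and high (top ~1%) gates were set on anti-HA fluorescence for expression and streptavidin fluorescence for reagent binding, and each polyreactivity label reflects the gate of origin.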

| Sequence | polyreactivity (PSR sort gate) |
| --- | --- |
| QVQLVESGGGLVQAGGSLRLSCAASGRTFGSYAMGWYRQAPGKERELVAAISKGGGSTYYADSVKGRFTISRDNAKNTVYLQMNSLKPEDTAVYYCAKRRFDYYYYGGQGTQVTVSS | high polyreactivity |
| QVQLVESGGGLVQAGGSLRLSCAASGRTFGSYAMGWYRQAPGKERELVAAITWSGTGTYYADSVKGRFTISRDNAKNTVYLQMNSLKPEDTAVYYCAVYTIGYLAWYQKFDYWGQGTQVTVSS | high polyreactivity |
| QVQLVESGGGLVQAGGSLRLSCAASGRTFGSYGMGWYRQAPGKERELVAAISRSVGSTYYADSVKGRFTISRDNAKNSVYLQMNSLKPEDTAVYYCAVLNHRSFRYTSYYYWGQGTLVTVSS | high polyreactivity |
| QVQLVESGGGLVQAGGSLRLSCAASGRTFGTNAMGWYRHAPGKERELVAANSRRGGSTYYAESVKGRFTISRDNEKNTVYLQMNSLKPEDTAVYYCAKTIGLKHEDEYWGQGTQVTVSS | low polyreactivity |
| QVQLVESGGGLVQAGGSLRLSCAASGRTFGTNAMGWYRQAPGKERELVAAINQNGGSTYYADSVKGRFTISRDNAKNTVYLQMNSLKPEDTAVYYCAARSLDRYYHNANYYPYYYWGQGTQVTVSS | high polyreactivity |
| QVQLVESGGGLVQAGGSLRLSCAASGRTFGTNTMGWYRQAPGKVRELVATISSSSGSTYYADSVKGRFTISRDNAKNTVYFQMNSLKPEDTAVYYCAALCRWRYKRYDYWGQGTQVTVSS | high polyreactivity |
| QVQLVESGGGLVQAGGSLRLSCAASGRTFGTYALGWYRQAPGKERELVASITSGDSTNYADSVKGRFTISRDNAKNTVYLQMNRLKPEDTAVYYCNARGDVIVTPPKFSFNYEYWGQGTQVTVSS | low polyreactivity |
| QVQLVESGGGLVQAGGSLRLSCAASGRTFGTYAMGWSRQAPGKERELVAAITWRTGNTYYADSVKGRFTISRDNAKNTVYLQMNSLKPEDTAVYYCAKTSSGRKFYWGQGTQVTVSS | high polyreactivity |
| QVQLVESGGGLVQAGGSLRLSCAASGRTFGTYAMGWYRQAPGKEREFVAAISRNGGSTYYADSVKGRFTISRDNAKNTVYLQMNSLKPEDTAVYYCATGVLWSAYRYRPNLGYDDWGQGTQVTVSS | low polyreactivity |
| QVQLVESGGGLVQAGGSLRLSCAASGRTFGVNAMGWYRQAPGKERELVAAITKDSGSTNYADSVKGRFTISRDNAKNTVYLQMNSLKPEDTAVYYCAARVWVRGYYWGQGTQVTVSS | low polyreactivity |
| QVQLVESGGGLVQAGGSLRLSCAASGRTFGVNAMGWYRQAPGKERELVASISNKGSTYYADSVKGRFTISRDNAKNTVYLQMNSLKPEDTAVYYCAADEYWSWDGTRYGVHYYYWGQGTQVTVSS | low polyreactivity |
| QVQLVESGGGLVQAGGSLRLSCAASGRTFGVYAMGCYRQAPGKERELVAGIRWRGGSTYYADSVKGRFTNSRDNAKNTVYLQMNSLKPEDTAVYYCAADVYLVKYDYWGQGTQVTVSS | low polyreactivity |
| QVQLVESGGGLVQAGGSLRLSCAASGRTFGVYAMGWYRQAPGKERELVAGIRWRGGSTYYADSVKGRFTISRDNAKNTVYLQMNSLKPEDTAVYYCAADVYLVKYDYWGQCTQVTVSS | low polyreactivity |
| QVQLVESGGGLVQAGGSLRLSCAASGRTFGVYAMGWYRQAPGKERELVAGIRWRGGSTYYADSVKGRFTISRDNAKNTVYLQMNSLKPEDTAVYYCAADVYLVKYDYWGQGTQVTVSS | low polyreactivity |
| QVQLVESGGGLVQAGGSLRLSCAASGRTFGVYAMGWYRQAPGKERELVASISRSGGSTYYADSVKGRFTISRDNAKNTVYLQMNSLKPEDTAVYYCAAVYKRGMDYWGQGTQVTVSS | high polyreactivity |
| QVQLVESGGGLVQAGGSLRLSCAASGRTFGVYAMGWYRQAPGKERELVAVIRVIGGSTNYADSVKGRFTISRDNAKNTVYLQMNSLKPEDTAVYYCAADQYYSSDYDYWGQGTQVTVSS | low polyreactivity |
| QVQLVESGGGLVQAGGSLRLSCAASGRTFGVYVMGWYIQAPGKERELVAVITISGGSTYYADSVKGRFTISRDNAKNTVYLQMNSLKPEDTAVYYCAARTYYGYDYWGQGTQVTVSS | high polyreactivity |
| QVQLVESGGGLVQAGGSLRLSCAASGRTFGWNAMGWYRQAPGKERELVAAISRTGNTYYADSVKGRFTISRDNAKNTVYLQMNSLKPEDTAVYYCAKGRYYTPTYFRGVDLYDYWGQGTQVTVSS | low polyreactivity |
| QVQLVESGGGLVQAGGSLRLSCAASGRTFGWYAMGWYRQAPGKERELVASITQRGGRTYYADSVKGRFTISRDNAKNTVYLQMNSLIPEDTAVYYCAARGATVSSRIYGYWGQGTQVTVSS | high polyreactivity |
| QVQLVESGGGLVQAGGSLRLSCAASGRTFGYNAMGWYREAPGKERELVPAITTSGGSTYYADSVKGRFTISRDNAKNSVYLQMNSRKPEDTAVYYCAADYSFFYRYTWLVYIFDYDYWGQGTQVTVSS | low polyreactivity |
| QVQLVESGGGLVQAGGSLRLSCAASGRTFGYNAMGWYRHAPGKERELVAAISSSGGSTYYADSVKGRFTISRDNAKNTVYLQMNSLKPEDTEVYYCATQGYSWAHGSDYWGQGTQVTVSS | low polyreactivity |
| QVQLVESGGGLVQAGGSLRLSCAASGRTFGYNAMGWYRQAPGKERELVAAIRTIGDSTYYADSVKGRFTISRDNAKNTVYLQMNSLKPEDTAVYYCAARKLRSRYDYWGQGTQVTVSS | high polyreactivity |

| Sequence | polyreactivity (PSR sort gate) |
| --- | --- |
| QVQLVESGGGLVQAGGSLRLSCAASGRTFGYNAMGWYRQAPGKERELVASISYSGGSTYYADSVKGRFTISRDTAKNTVYLQMNSLKPEDTAVYYCSAKYWYWQSPSKYYYWGQGTQVTVSS | high polyreactivity |
| QVQLVESGGGLVQAGGSLRLSCAASGRTFGYNAMGWYRQAPGKERELVATITSSDSTYYADSVKGRFTISRDNAKNTVYLQMNSLKPEDTAVYYCAADDVGWGYYVYSYPYDYWGQGTQVTVSS | low polyreactivity |
| QVQLVESGGGLVQAGGSLRLSCAASGRTFGYTMGWYRQAPGKERELVAAITRSVTTYYADSVKGRFTISRDNAKNTVYLQMNSLKPEDTAVYYCAAVNTLREMYWGQGTQVTVSS | high polyreactivity |
| QVQLVESGGGLVQAGGSLRLSCAASGRTFGYYAMGWYRQAPGKEREFVAAISWSGGSTYYADSVKGRFTISRDNAKNTVYLQMNSLKPEDTAVYYCATDTTYYAGSWYGYWGQGTQVTVSS | low polyreactivity |
| QVQLVESGGGLVQAGGSLRLSCAASGRTFGYYAMGWYRQAPGKERELVAAISSRGGSTSYADSVKGRFTISRDNAKNTVYLQMNSLKPEDTAVYYCAVGRPRPKYEYDYWGQGTQVTVSS | high polyreactivity |
| QVQLVESGGGLVQAGGSLRLSCAASGRTFGYYAMGWYRQAPGKERELVAAISWRTVSTHYADSVKGRFTISRDNAKNTVYLQMNSLKPEDTAVYYCAARWGKIRGFHLDYWGQGTQVTVSS | high polyreactivity |
| QVQLVESGGGLVQAGGSLRLSCAASGRTFGYYAMGWYRQAPGKERELVAAITRTGGSTHYADSVKGRFTISRDNAKNTVYLQMNSLKPEDTAVYYCARDYRYTIPYDYWGQGTQVTVSS | low polyreactivity |
| QVQLVESGGGLVQAGGSLRLSCAASGRTFGYYAMGWYRQAPGKERELVAAITWIGGSTYADSVKGRFTISRDNAKNTVYLQMNSLKPEDTAVYYCAADPSVWSDYYYWGQGTQVTVSS | high polyreactivity |
| QVQLVESGGGLVQAGGSLRLSCAASGRTFGYYAMGWYRQAPGKVRELVASISSSGGNTYYADSVKGRFTISRDNAKNNVYLQMNSLKPEDTAVYYCAATYGWWPRDYYYWGQGTQVTVSS | high polyreactivity |
| QVQLVESGGGLVQAGGSLRLSCAASGRTFGYYDMGWYRPAPGKERELVAAITWIDGRTYYADSVKGRFTISRDNAKNTVYLQMNSLKPEDTAVYYCAKRHKAGFYRTYRYGYWGQGTQVTVSS | high polyreactivity |
| QVQLVESGGGLVQAGGSLRLSCAASGRTFGYYGMGWYRQAPGKERELVAAIRRRSGSTYYADSVKGRFTISRDNSKNTFYLQMNSLKPEDTAVYYCNQIRVSNFDYWGQGTQVTVSS | high polyreactivity |
| QVQLVESGGGLVQAGGSLRLSCAASGRTFGYYGMGWYRQAPGKERELVAAITGSGGSTYYADSVKGRFTISRDNAKNTVYLQMNSLKPEDTAVYYCGATDLSRWTLYDYCGQGTQVTVSS | high polyreactivity |
| QVQLVESGGGLVQAGGSLRLSCAASGRTFGYYGMGWYRQAPGKERELVASINFSSGSTFYADSVKGRFTISRDNAKNTVYLQMNSLKPEDTAVYYCAARAKAVRSYAYNYWGQGTQVTVSS | low polyreactivity |
| QVQLVESGGGLVQAGGSLRLSCAASGRTFGYYTMGWYRQAPGKERELVARINYIGSSTYYADSVKGRFTISRDNAKNTVYLHMNSLKPEDTAVYYSNADNARGRSGVRRYYWGQGTQVTVSS | high polyreactivity |
| QVQLVESGGGLVQAGGSLRLSCAASGRTFHAYVMGWYRQAPGKERELVADISSGGDTYADSVKGRFTISRDNAKNTVYLQMNSLKPEDTAVYYCAVDLIQDESGYWGQGTQVTVSS | low polyreactivity |
| QVQLVESGGGLVQAGGSLRLSCAASGRTFHGNAKGWYRTAPGKERELVAAISYSGGRTYYADSVKARFTISRDNAKNTVYLQMNSLKPEDTAVYYCAAWGSSYSFDYWGQGTQVTVSS | high polyreactivity |
| QVQLVESGGGLVQAGGSLRLSCAASGRTFHGYAMGWSRQAPGKERELVARINWSDGRTYYADSVKGRFTISRDNAKNTVYLQMNSLKPADTGVYYCAARLYSSASGVRWIKFDYWGQGTQVTVSS | low polyreactivity |
| QVQLVESGGGLVQAGGSLRLSCAASGRTFHRYAMGWYRQAPGKERELVAAINWRGGSTYYADSVKGRFTISRDNAKNTVYLQMNILKPEDTEVYYCAAKTTTPYRYIYYYWGQGTQVTVSS | high polyreactivity |
| QVQLVESGGGLVQAGGSLRLSCAASGRTFHRYVMGWYRQAPGKERELVAAITRSGGITYYADSVKGRFTISRDNAKNTVYLQMNSLKPEDNAVYYCAKDDLTASGFDYWGQGTQVTVSS | low polyreactivity |
| QVQLVESGGGLVQAGGSLRLSCAASGRTFHSYAMGWYRQAPGKERELVAVITRRGGSTYYADSVKGRFTISRDNAKNTVYLQMNSLKPEDTAVYYCNKGKSYTYDYWGQGTQVTVTS | high polyreactivity |
| QVQLVESGGGLVQAGGSLRLSCAASGRTFHSYAMGWYRQAPGKEWELVAGISWGGTRTTYADSVKGRFTISRDNSKNTVYLQMNSLKPEDTAVYYCNAVYYALGRSPPDYGYWGQGTQVTVSS | low polyreactivity |
